The values below come from patent US20100135951.

The data set concerns the target purified cIAP1, Q13490.

Sequence of purified cIAP1, Q13490 (Q13490 whole entry): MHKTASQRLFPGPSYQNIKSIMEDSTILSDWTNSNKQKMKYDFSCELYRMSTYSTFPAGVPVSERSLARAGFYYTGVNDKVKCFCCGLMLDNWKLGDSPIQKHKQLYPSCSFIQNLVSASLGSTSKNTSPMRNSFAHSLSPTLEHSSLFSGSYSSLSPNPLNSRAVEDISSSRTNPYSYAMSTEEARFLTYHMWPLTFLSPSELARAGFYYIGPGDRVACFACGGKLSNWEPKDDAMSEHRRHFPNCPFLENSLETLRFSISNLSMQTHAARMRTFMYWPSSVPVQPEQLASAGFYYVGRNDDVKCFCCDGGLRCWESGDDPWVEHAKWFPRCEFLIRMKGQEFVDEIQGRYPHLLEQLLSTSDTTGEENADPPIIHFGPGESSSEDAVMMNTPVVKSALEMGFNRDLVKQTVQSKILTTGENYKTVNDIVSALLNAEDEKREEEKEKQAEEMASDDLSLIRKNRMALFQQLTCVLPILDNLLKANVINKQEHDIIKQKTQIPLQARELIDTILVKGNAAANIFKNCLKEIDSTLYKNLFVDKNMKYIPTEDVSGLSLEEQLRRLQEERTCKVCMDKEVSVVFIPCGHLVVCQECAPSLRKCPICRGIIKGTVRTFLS

B1: recombinant active human caspase-8 (protein)
chain: SESQTLDKVYQMKSKPRGYCLIINNHNFAKAREKVPKLHSIRDRNGTHLDAGALTTTFEELHFEIKPHDDCTVEQIYEILKIYQLMDHSNMDCFICCILSHGDKGIIYGTDGQEAPIYELTSQFTGLKCPSLAGKPKVFFIQACQGDNYQKGIPVETDSEEQPYLEMDLSSPQTRYIPDEADFLLGMATVNNCVSYRNPAEGTWYIQSLCQSLRERCPRGDDILTILTEVNYEVSNKDDKKNMGKQMPQPTFTLRKKLVFPSD
Consider B1, for which the “caspase-8 protease activity (fluorogenic substrate Ac-IETD-AMC)” value is “purified cIAP1 also suppressed caspase-8 protease activity completely”.
